Source: the DeepSol protein solubility set

test: soluble on expression in E. coli; label from the status in PepcDB or PDB records

Row | Sequence | soluble on expression in E. coli
1 | MRIFEPGLCSVTFRSLSPQAVIDLAVANGIRAIEWGADIHVPAGDLENARDVAERTAKAGLAVSSYGSYIFAPDFTRKDLTAVLETAKALGTGHIRIWPGQRKRPSTDYSPAERRTATEALAEIARQAQDYDMTIGLEYHPNSLTDTLPSALQLAQDLALPNLFFYWQPAPGLPLEKALAEISKIGSRVCHLHIFAWLADTNRLPLADRVDYWQSCVEALPESEWTKPAYAMLEFVKGDDVGQFAEDAVTLSEILAGHRVADLEHHHHHH | soluble
2 | MRIHSAGHSLPAPGPSVETTEKAVQSSSAQNPASCSSQTERPEAGSTQVRPNYPYSSVKTRLPPVSSTGQAISDTPSSLPGYLLLRRLDRRPLDEDSIKALVPADEALREARRALPFGRGNIDVDAQRTHLQSGARAVAAKRLRKDAERAGHEPMPENDEMNWHVLVAMSGQVFGAGNCGEHARIASFAYGALAQESGRSPREKIHLAEQPGKDHVWAETDNSSAGSSPIVMDPWSNGAAILAEDSRFAKDRSAVERTYSFTLAMAAEAGKVARETAENVLTHTTSRLQKRLADQLPNVSPLEGGRYQPEKSVLDEAFARRVSDKLNSDDPRRALQMEIEAVGVAMSLGAEGVKTVARQAPKVVRQARSVASSKGMPPRR | not soluble
3 | MRIILLGAPGAGKGTQAQFIMEKYGIPQISTGDMLRAAVKAGSELGLKAKEIMDAGKLVTDELVIALVKERITQEDCRDGFLLDGFPRTIPQADAMKEAGIKVDYVLEFDVPDELIVERIVGRRVHAASGRVYHVKFNPPKVEDKDDVTGEELTIRKDDQEATVRKRLIEYHQQTAPLVSYYHKEADAGNTQYFKLDGTRNVAEVSAELATILG | not soluble
4 | MRILAIGDIIGRPGRKALRELLPQLKEEVAYDVVIANVENSAGGFGITKKVYEELLEIGIDVMTSGNHIWDKKEVYNFIGEAYNLLRPANYPEGVPGRGYGIFKKNGVEFAVINLMGKVFMDCNLENPFKTFDRIYDELKDKVKIIVVDFHAEATSEKWAFGIYVDGRASFVYGTHTHVPTADEFILKKGTGYVSDIGMTGVWYSAIGMKPKEAIERFLLSLPRRFEVEDKGEIMFNAVLVDIDEETGKTKSIERIKRFL | soluble
5 | MRILEEDLKNSTYRIRIESLDDLWYLRNILSEGDEVSAITFRRVEESADVQRSRERERIPITIRLKVEKIEFQDFDNRLRILGTVIEGPEDTKGKHQSITVTVDSEISITKEWDDQHIDLLKEATDEKYVTVYTAVAMDEDEAQIFLIHPYGIQQVGTVYSGRSGKYAEGNYSEASYFDQIVNALKNYSNSIIILGPGFARDRFARYCAQRGVNVIGSFPANRTDSGAVYEFITSADGAKLLSNERIARDKEIVDEFLVAVKKDMGVYGRDQTESALQMGALSDLIITDEMFRTEDGRRSLSIAQTVGTRIHIVSVSNDPGQIVKKFGGFAGILRYRVQLEHHHHHH | soluble
6 | MRIRSLEIEHMRAITHLVLKDLPSNGVIVISGENERGKSTIMEAIKLVLGEKHDTNKQSVKAIQPKGHDVGTRICLEADLGPVRFRVSKVFNKKKSCELTIFEPKPANYTGKEANSQLSGLLDAHLDHDLFSALFVEQGDITSMLSAAGISSVTQALGGATDHASNEDNALILTVEKEKDRYFTKSGATKKGGELGIAETAVAEAEQAVLAATQQKETLDRRVESVAGFQRDRDQAQQDLPNARDTLTTREQELKTAELAAQQLENASAQLKIAQDQERILQSDIDAREELRKEQSRLSEALQIRIQEELDLKEKTDSLSEAREKLRSQHEKARADAEKMRQRLEKLKESLRLDTLRTSYQELLTVSKQLEELRTVPEVTGAQLSAAEEANDRAKAAAYVVEAHAATMLINAAQPVTIQIDGEAVALNDTEWTTRITSELTAVIGDVSLTIEPGEQGEQLEQKRAETQETLRAALGDAKDIATLRLQREAWVDAEKELQSLNKRKNEIAMRFGDKADLERDIADAELQVAELDIQESDDLQQLIDDAEKEYLQYQQDADAYQKELGAWDSNDIQVRYATVKARVEAERENLDRCDQKIKAQEEQRPLEVLHSELHNVTAELKRQQDHLAELRETDNLQVAKDLYAGAAARVESLENTIRDCEANLKALQTQIDYAAGAAEQLDVALAQRDVALRVLEAVHHRAQAAMLLYTTLIRHRDIARQKYAAPFTQRLTEFAAPVFGKGVGFELGSDLSVVKRTMKEQTVGVDELSGGAQEQLSIVQRFAVADLASQGGETVPVFIDDALGSTDSNRLEMMATLFSRQGHNQQVFVLTCMPQRYDYVAGKHELRISDLMQ | not soluble
7 | MRKEDKGTVIRQLAKYIGQYPHFYLTDIEALNAEKTSELRRNCNKNGVKLVMVKNTLLRAALAASDVDFSSLYSCLKGNTAVMFCEVANSPAKVIKQFTKDTKGEGKPWLKAAYVQESFYIGRENLDALVSIKSKNELIADVVALLQSPAKNVIASLQSAGQTIHGVLKTLEEK | not soluble
8 | MRKLLVSLVLLIFSENVTANRVEQVHLSLSGKMDEMVVTWLTQGPLPNVTPYVMYGLSKDALRWTAKATTTSWKDQGSHGYVRYTHRATMTKMVPGDTYYYKVGSSQDMSDVYHFHQPDPTQPLRAAIFGDLSVYKGAPSIKQLTDATHDNHFDVIIHIGDIAYDLHDDEGNRGDDYMNAVQPFAAYVPYMVFAGNHESDSHFNQIINRFTMPKNGVYDNNLFWSFDYGLTHFIGLNSEYYAEIHTKEAQAQYKWLQADLAKNKAQWTIVMFHRPWYCSTKDKGGCNDYLDMLSRKGNSELPGLEKLLFDHKVDMVLYGHKHTYERMWPIYDGTGYKSSDSGHIRNAKAPVYILTGSAGCHTHEGPSDAPQSFSATRLGQYGYTRLKVYNTTHLSTYFVDTSDKVGNFMDKFYLEKD | soluble
9 | MRKMKTERAKEILVQLLKIPSPSGREDRVALYIMEFLHKLNYDVHIESDGEIIDLVVNPGAELFFEVHMDTIDPRAEPFVRGNIVYGTGASDIKGGIASILLMLEQLRKEGKDLNVGIVFVSDEEKGGRGSALFMERYRPKMAVVLEPTDLEVHIAHAGNIEAYFEVDGKEAHGACPESGINAIEQTFEMLQKLKDLEPFKAKGKYFDPHIGIQELICENPYYLIPALCKGRLEARLLPDQEVEDILDLIDPILDEYTVKYEYTEIWDGYELSEDEEIVQIAKSAMDMVGLDEFGAMRSWTDAINFTYNGTKTIVFGPGNLDISHTKQERIDVRDVVKASEFLLAVNEIFGNKS | soluble
10 | MRKSRDANPFKAMPNILYPDELMDKAYNRSEKIAGELRTTTRGLSTPKSKIIEDNKIRTTASVISDNLLKIVEKTPSIDNLDPFYREILEIMVGSDEFKKSLAAVQWASEIVKKLGTQYSRKVKKAPSPQATSIVRKEFIGRVSSVLKQIYPNMAFLGVARNKLKNIPTVKNLPSVVIAGYPNVGKSTLLRTLTDAEPEVNSYPFTTKGLNIGYTEEGIQIIDTPGVLDRPIYERNDIELHAVVAINYLSDMILFVIDPTEFCGFTMEEQFNLLQEIRKTFNVPILVALTKMDVDEIEGLDKLEEDLGEYEVLKVSSFKKEGIADLRERLLDILDEQGLMGLLEELEHHHHHH | soluble
11 | MRKTRNQAGARQALKQLGMRNTSRSAAPRRGCVLSCFFEHLSLYDHSFFPHHSSQMFLFLKDSRFRKKMASQQDASPPTGYNMGHRHSLTIETNPLHLLPSNMRRFSQADTARHPAAPLLSKLAARQQIPEAVAEKKDDEKPENK | not soluble
12 | MRLDKYLSKSLHISRKEAKELIREGRVKVSGKVVKQAEYRVKEGEEVEVEGKSVKPKKNVYLMLYKPKGYLSTTEEDKKYPSFLELIREHFPSRKLFSAGRLDVDAEGLLLITDDGELAHRLTHPKWKVEKEYIVRLDRDIGDEELKKLYEVKLEEKPVQLVKAEKLSGDTVKAILTEGRHHVVKRLFKAVGHNVVYLKRTRVGNLRLDENMEPGEWRELTEEEVKELKRLVKYNPQN | soluble
13 | MRLDRYLSNSGVGTRKEVKKLIKQGRVTVNGRVVLDPGHPVLENDAVALDGEVVRFHKKVYILFYKPSGYVTSTKDPHSETIMEFLPPLKGIFPVGRLDKDAEGLLIITNDGDFAHRVISPKWSVEKEYIVKVEGEVTEDKIEKLKNGVTLRDGFFAKAKRVEKLSNDTLKIVITEGKYHQIKRMTAAVGLKTVHLKRTRIGGLVLPDDMKPGEYRFLSEEEVKKVFEREDQKEDTPRS | not soluble
14 | MRLERVLEEARAKGYPIEDNGLGNLWVVLPRERFKEEMAHYKAMGFNFLADIVGLDYLTYPDPRPERFAVVYELVSLPGWKDGDGSRFFVRVYVPEEDPRLPTVTDLWGSANFLEREVYDLFGIVFEGHPDLRKILTPEDLEGHPLRKDYPLGETPTLFREGRYIIPAEFRAALTGKDPGLTFYKGGSRKGYRSLWADLKKAREVKG | soluble
15 | MRLIVVSGQSGAGKSVALRVLEDLGYYCVDNLPVSLLTAFIQSVQGSQQNVAVSIDIRNLPKEPSLVQDVLDQLKQNNDVSMLFLDASKETLLKRYSETRRIHPLSLSQSKPSLAQAIELEKQLLGPLKEQADLLLDSSNQSLHELSETVRMRIEGRERKDLVMVFQSFGFKYGLPTDADYVFDVRFLPNPHWEPDLRPLTGLDAPIKSFLEGHSEVMELKQQIQKFFEYWLPMLEKNNRSYLTIAIGCTGGKHRSVYLTQQLGEYFAQLGHQVQLRHTSLEKQ | soluble
16 | MRLKKIGEWLNASPEDQDKQNADLLQTLSKLTGKQLDANALQMLQNLLQAVESKNVSGTDQLLTETEKIFSEAKTALSANDSASDINGALKSDKEQSNQENEVSEPAKELIYIQMFISQLVEGNKLTDLGNGNEAHAIYQNGDQFLSALEKKGVSQQLIQDLKQQIFTKAESSSKLYSMTASELKSFQSLMDQMSMLPQKGTKEWSLAETQLKAFLLSKSSESSQDFGKSVLTPLSQSSSSKNASDVSGSIQPVDSKSGLQMLFSGYRGIGGVQTLDLQQMSSDIPNAETKTVADQVINAWKQMKYTPFGRSTGSFTIRLNPEHLGFVTIKLTNENGMFQSKIIASSQSAKELLEQHLPQLKQSLPNMAVQIDRFTLPVQSGDQPIYGQLADEQKQQQEGQRQQRQKKQSNDFGDLLDEVSMVEMEEEE | soluble
17 | MRLLHTMLRVGDLQRSIDFYTKVLGMKLLRTSENPEYKYSLAFVGYGPETEEAVIELTYNWGVDKYELGTAYGHIALSVDNAAEACEKIRQNGGNVTREAGPVKGGTTVIAFVEDPDGYKIELIEEKDAGRGLGN | soluble
18 | MRLLLAAPHSGAGKTTVSLALLLALRARGLRVQPFKVGPDYIDPTHLEKAAARRPYNLDGFFLDETGLLALFRHGARGADFALIEGVMGLFDGKDPRGEVGSTAQVARLLKAPVALVVDAKGMAGSIAPLALGFRDFHPGVRVVGVFANRVGSERHAEILKEALKAVGLPLLGWLPQDPALELPERHLGLVLAGEVAPPLEALRRAFRVDLEGVLRLAASAPPLPEARPFLPPRRPPRARVAYAWDKAFSFYYPEALELLEALGAELVPFSPLEDEALPKAHALLLGGGYPELFAERLSANVALREAIRRFPGPIVAECGGYMYLSQGLWVGERFFPMVGLVPGEARMAERPVLGYREVEALRDSPVARKGQAFKGHEFHYARLPASPSPAWRRLGGEEVEGYTDGRVLASFVHLYLPARPEGVERLLGLASRGKAAGASLEHHHHHH | not soluble
19 | MRLRSMTKVLVLGARFGGLSAAYALKRLAGNKAEIKVINNTRFSYFRPALPHVATGVINENDVMVDLTKALPEKRINFQQGTVEKIDASGGLVYYTKPDGDKAEEDYDYLIIALGAHLGTELVKGWDKYGYSVCELDYALKLREKLKDFKGGTIAIGSGLFYQGKSPKPKVPENYVPVADAACEGPIFEMSLMLSGYFKKKGMLNKVKFVVFSPGEYLSDLSTMSRKIVREMYKQMGIELVDNFRIKEIRENEIADEAGKTIKADLTILIPPYTGNPALKNSTPDLIDDGGFVPTDLNMVSINYDNVYAVGDANSLTVPKLGYLAVKTGNIAAQHLATRLGVQVKVDQYYPTIICVADNPFEGFGIAVKDDTWYGGTTSIAAPSPINHIKKELFHKYFIWTKGDMALEKFLASWLEHHHHHH | soluble
